{"source": "patent US20170174733A1", "about": "(Genentech, published 2017)", "binders": {"B1": {"name": "chagasin LRP6 variant S15 (designed binder)", "chain": "MSHKVTKAHNGATLTVAVGELVEIQLPSNADGFAWYFEGGTKESPNESMFTVENKYFPSNSTKRGAGGTEHFHVTVKAAGTHAVNLTYMRREKGSTLVVERFTVYLKAN", "modifications": "biotinylated at the Avi-tag (BirA)", "notes": "not shown: C-terminal His6-tag and Avi-tag (ExiProgen small-scale expression)"}, "B2": {"name": "monomeric chagasin VEGF variant L4X6-7 (designed binder)", "chain": "MSHKVTKAHNGATLTVAVGELVEIQLPSNYFREGFAWYFEGGTKESPNESMFTVENKYFPHVQWGWGAGGTEHFHVTVKAAGTHAVNLTYMAPWVGPSRELERFTVYLKAN"}, "B3": {"name": "chagasin VEGF variant 66 (designed binder)", "chain": "MSHKVTKAHNGATLTVAVGELVEIQLPSNYYYDGFAWYFEGGTKESPNESMFTVENKYFPHYYNLGGRYTGAGGTEHFHVTVKAAGTHAVNLTYMGPWLGPSRVLERFTVYLKAN", "notes": "also called clone 66; not shown: C-terminal His6-tag and Avi-tag of the ExiProgen small-scale expression"}, "B4": {"name": "chagasin LRP6 variant H2 (designed binder)", "chain": "MSHKVTKAHNGATLTVAVGELVEIQLPSNPQTGFAWYFEGGTKESPNESMFTVENKYFPSNKVKGVPGFGAGGTEHFHVTVKAAGTHAVNLTYMGPWTGASQEPERFTVYLKAN", "notes": "also called clone H2"}, "B5": {"name": "GST-fused chagasin VEGF variant 4-66-F6 (designed binder)", "chain": "MSHKVTKAHNGATLTVAVGELVEIQLPSNYFYDGFAWYFEGGTKESPNESMFTVENKYFPNDPGSRLSGAGGTEHFHVTVKAAGTHAVNLTYMAPWLGPSRVLERFTVYLKAN", "notes": "also called GST-Variant 4; variant 4 as a GST-fusion protein; not shown: N-terminal His6-GST-tag and TEV cleavage site (pET52b backbone)"}}, "key": {"[1]": {"molecular_target": "T1, LRP6 E1E2 with a C-terminal Avi-tag and His6-tag (human, UniProt O75581 20-630, biotinylated (Avi-tag) where loaded on streptavidin tips; unlabeled where in solution)", "T1 construct": "domain: E1E2; also called LRP6 receptor fragment E1E2; biotinylated LRP6-E1E2; not shown: C-terminal Avi-tag and His6-tag", "T1 sequence": "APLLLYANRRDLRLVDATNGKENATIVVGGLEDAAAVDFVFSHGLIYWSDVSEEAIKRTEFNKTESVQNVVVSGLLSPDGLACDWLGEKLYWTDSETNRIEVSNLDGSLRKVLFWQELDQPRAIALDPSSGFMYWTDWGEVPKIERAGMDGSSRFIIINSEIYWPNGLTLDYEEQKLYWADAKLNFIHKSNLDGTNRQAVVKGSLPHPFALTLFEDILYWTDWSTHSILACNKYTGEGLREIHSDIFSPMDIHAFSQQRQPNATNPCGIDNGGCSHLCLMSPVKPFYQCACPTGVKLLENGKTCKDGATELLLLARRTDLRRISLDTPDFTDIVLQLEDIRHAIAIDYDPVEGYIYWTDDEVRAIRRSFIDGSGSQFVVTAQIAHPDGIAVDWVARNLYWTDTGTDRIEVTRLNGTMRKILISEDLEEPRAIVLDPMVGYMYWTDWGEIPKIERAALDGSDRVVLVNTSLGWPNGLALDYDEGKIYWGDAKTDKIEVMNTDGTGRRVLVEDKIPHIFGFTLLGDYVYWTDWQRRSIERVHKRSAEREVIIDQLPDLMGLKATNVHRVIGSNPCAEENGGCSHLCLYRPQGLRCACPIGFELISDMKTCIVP", "assay": "BLI on small-scale ExiProgen protein with C-terminal Avi-tag"}, "VEGF109 [2]": {"molecular_target": "T2, VEGF109 (UniProt P15692 214-315, biotinylated where loaded on streptavidin tips)", "T2 construct": "range 8-109; also called VEGF8-109; biotinylated VEGF109", "T2 sequence": "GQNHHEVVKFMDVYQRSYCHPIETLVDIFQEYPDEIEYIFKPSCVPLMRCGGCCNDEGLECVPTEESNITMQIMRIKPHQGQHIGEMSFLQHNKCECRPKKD", "assay": "BLI (OctetRED384): biotinylated VEGF109 on tips"}, "human VEGF [3]": {"molecular_target": "T3, human VEGF (human, UniProt P15692 27-191)", "T3 sequence (P15692 other isoform, or with tags, fused parts or gaps limits assumed)": "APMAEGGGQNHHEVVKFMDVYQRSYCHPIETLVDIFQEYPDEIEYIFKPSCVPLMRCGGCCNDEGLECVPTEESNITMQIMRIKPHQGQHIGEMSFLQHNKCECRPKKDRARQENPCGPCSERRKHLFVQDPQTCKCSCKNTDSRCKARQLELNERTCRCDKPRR", "assay": "cell-based or functional assay"}, "VEGF109 [4]": {"molecular_target": "T2, VEGF109", "assay": "BLI (OctetRED384): biotinylated VEGF109 on tips, monomeric variant in solution"}, "VEGF109 [5]": {"molecular_target": "T2, VEGF109"}, "human VEGF [6]": {"molecular_target": "T3, human VEGF", "assay": "cell-based or functional assay", "remark": "listed apart in the source"}, "VEGF109 [7]": {"molecular_target": "T2, VEGF109", "assay": "BLI (OctetRED384): biotinylated VEGF109 on SA sensor tips"}, "[8]": {"molecular_target": "T1, LRP6 E1E2 with a C-terminal Avi-tag and …", "assay": "BLI (OctetRED384), monomeric variant"}, "LRP6 on HEK293S cells": {"molecular_target": "LRP6 on HEK293S cells (human, UniProt O75581 20-1613)", "assay": "cell-based or functional assay"}, "[9]": {"molecular_target": "T1, LRP6 E1E2 with a C-terminal Avi-tag and …", "assay": "biolayer interferometry (OctetRED384), fitting view of five traces, LRP6-E1E2", "method": "Binding affinities of chagasin variants for the targets LRP6 and VEGF109 were measured using the OctetRED384 (ForteBio). All washes, dilutions and measurements were performed in PBS-based kinetics buffer (ForteBio) with the plate shaking at 1000 rpm. Streptavidin biosensors (SA tips, ForteBio) were equilibrated in kinetics buffer for 5 min and then loaded with either biotinylated LRP6-E1E2 or biotinylated VEGF109 (20 μg/ml) to a density of 2 nm signal difference, followed by a 3 min washing step. […] Dissociation of the chagasin variant-target complex was measured in wells containing kinetics buffer alone for up to 30 min. Sensorgrams with ligand-loaded SA tips going through wells containing only buffer in both association and dissociation measurement were used as reference for background subtraction. Kd, kₐ and kd were determined using the Octet evaluation software v7.0.1.3. using a 1:1 binding model with global fitting. Alternatively, AMC-biosensors (Fortebio) were loaded with StrepMAB-Immo (IBA GmbH) to saturation and subsequently used to capture Strep-tag II containing chagasin variants to saturation. After 5 min of washing in kinetics buffer, binding kinetics to unlabeled LRP6-E1E2 fragment was determined essentially as described above."}, "biotinylated VEGF165 [10]": {"molecular_target": "T4, biotinylated VEGF165 (UniProt P15692 27-191)", "T4 construct": "range 1-165; also called VEGF1-165", "T4 sequence (P15692 other isoform, or with tags, fused parts or gaps limits assumed)": "as above", "assay": "competition binding ELISA: biotinylated VEGF165 premixed with the binder, then on coated VEGFR1-Fc (blocked partner), OD 450 nm"}, "human VEGF [11]": {"molecular_target": "T3, human VEGF", "assay": "cell-based or functional assay", "remark": "listed apart in the source"}, "human VEGF [12]": {"molecular_target": "T3, human VEGF", "assay": "cell-based or functional assay", "remark": "listed apart in the source"}, "biotinylated VEGF165 [13]": {"molecular_target": "T4, biotinylated VEGF165", "assay": "competition binding ELISA: blocks biotinylated VEGF165 binding to coated VEGFR1-Fc"}}, "note": "Where two headings read alike, the source gives them in different places."}
{"binder": "B1", "values": [{"measurement": "binding result", "setting": "[1]", "result": "binds"}]}
{"binder": "B2", "values": [{"measurement": "fold improvement of Kd over the parental variant 4", "setting": "VEGF109 [2]", "result": 2.5, "unit": "fold"}, {"measurement": "Inhibitory Activity (IC50, nM) against hVEGF in cell-based assays", "setting": "human VEGF [3]", "result": 65, "unit": "nM"}, {"measurement": "Kd", "setting": "VEGF109 [4]", "result": 150, "unit": "nM"}, {"measurement": "Kd", "setting": "VEGF109 [5]", "result": 160, "unit": "nM"}, {"measurement": "fold improvement of IC50 over the parental chagasin variant 4", "setting": "human VEGF [6]", "result": 13, "unit": "fold"}]}
{"binder": "B3", "values": [{"measurement": "binding result", "setting": "VEGF109 [7]", "result": "binds"}]}
{"binder": "B4", "values": [{"measurement": "Kd", "setting": "[8]", "result": 0.4, "unit": "nM"}, {"measurement": "IC50, inhibition of Wnt1 signaling (luciferase reporter, HEK293S cells transfected by WNT1)", "setting": "LRP6 on HEK293S cells", "result": 31, "unit": "nM"}, {"measurement": "Kd", "setting": "[9]", "result": 0.39, "unit": "nM"}]}
{"binder": "B5", "values": [{"measurement": "IC50", "setting": "biotinylated VEGF165 [10]", "result": 14, "unit": "nM"}, {"measurement": "IC50, inhibition of VEGF-dependent KDR phosphorylation on KDR-expressing CHO cells", "setting": "human VEGF [6]", "result": 72, "unit": "nM"}, {"measurement": "Inhibitory activity (IC50, nM) against VEGF in cell-based assays", "setting": "human VEGF [11]", "result": 73, "unit": "nM"}, {"measurement": "Inhibitory activity (IC50, nM) against VEGF in cell-based assays", "setting": "human VEGF [12]", "result": 28, "unit": "nM"}, {"measurement": "IC50", "setting": "biotinylated VEGF165 [13]", "result": 13, "unit": "nM"}]}
